Measurements: patent publication US20240075098A1

Target: DTR

Diphtheria toxin (from UniProt P00588) was tested, and the death of cochlea outer hair cells in Prestin-P2A-DTR/+ mice after DT at P36 was over 90%.
